Measurements from the supplement of paper PMC10126150.
± gives the standard deviation of the averaged measurements.

Test system: ATP
Experiment: switch fluorescence ratio, 500 uM ATP over buffer (Cy3 cluster intensity, sum of 5 cycles each) (fold (ratio)); higher = stronger signal-on switching upon ATP binding; sequences stand for … in TCGTCGGCAGCGTCAGATGTGTATAAGAGACAGTTTTTTTTTTTTTTTTTTTTTTTTT…TC
Details: aptamer strand: ATP DNA aptamer (quencher-CACCTGGGGGAGTATTGCGGAGGAAGG + anchor), 100 nM annealed; ATP concentration: 500 uM
How it was run: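 Per cluster, summed Cy3 intensity from the target cycles was divided by that from the buffer cycles to give the fluorescence ratio, then averaged per switch-domain sequence. Clusters outside 100-1000 RFU were excluded. The Cy3-labelled switching-strand clusters, on a modified Illumina MiSeq flow-cell, were annealed to 100 nM quencher-labelled ATP aptamer and imaged in selection buffer, then after 15 min with 500 uM ATP at 22 °C, for five cycles with NaOH stripping and re-annealing between them.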
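Further: ATP exposure 15 min at 22 °C before imaging.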

Row | Sequence | switch fluorescence ratio
1 | GATACTCGCG | 1.03 ± 0.0056
2 | CAGTCTATCA | 0.972 ± 0.029
3 | GGATAAAGGT | 0.978 ± 0.018
4 | TTAAGTGTAC | 1.03 ± 0.026
5 | ATCGGGGATT | 1.01 ± 0.014
6 | TTTAACGATC | 1.01 ± 0.035
7 | GTGTGGAGGA | 1.03 ± 0.037
8 | TGCTTATGGG | 0.965 ± 0.016
9 | GGGTTGGACT | 0.999 ± 0.012
10 | TGGGTTCGGG | 0.9503 ± 0.0091
11 | TCGTGTTTGT | 1.02 ± 0.011
12 | CTCCCTGGGT | 1.401 ± 0.013
13 | GAAGTATGGG | 0.956 ± 0.024
14 | AAGGCTTGAT | 0.9998 ± 0.0081
15 | GCTAAAGTCT | 1.043 ± 0.0085
16 | TACCAACATC | 1.093 ± 0.0039
17 | ATGTTATTTA | 1.01 ± 0.025
18 | CAGGGGAATG | 0.994 ± 0.021
19 | TAATTTGTTA | 1 ± 0.02
20 | GCGAATGATG | 0.966 ± 0.024
21 | TGGAAAGCTG | 1.04 ± 0.025
22 | AGACAGGGAG | 1.01 ± 0.031
23 | AAGGGTATGC | 1 ± 0.035

Row | Sequence | switch fluorescence ratio
24 | CAGGTGGGGC | 1.02 ± 0.035
25 | AGAAGGCGGC | 1 ± 0.023
26 | ACTGATTTTT | 1.015 ± 0.0036
27 | GGTGGGTTTT | 0.99 ± 0.013
28 | CACCGTGTGG | 1.006 ± 0.0088
29 | AGCCCGAGGG | 0.989 ± 0.065
30 | AATGAGTCAA | 1 ± 0.021
31 | GTTTTCTGAG | 0.9658 ± 0.0089
32 | AGGAGTACTT | 1.02 ± 0.019
33 | ACATTAGGGT | 1.01 ± 0.012
34 | GAAATTTATA | 1.05 ± 0.04
35 | TAGATGTGTT | 1.01 ± 0.023
36 | TCTTGATTAT | 0.9795 ± 0.0085
37 | ATTAAAGGGT | 1.005 ± 0.0084
38 | TAGTTATGTG | 0.9513 ± 0.0043
39 | CGCTTTGGCG | 0.959 ± 0.061
40 | ATTGCCCACC | 1.026 ± 0.0086
41 | TTAGATTGGG | 0.9736 ± 0.0075
42 | TGGTTGTGAG | 1 ± 0.0065
43 | CGAACTTGTG | 1.01 ± 0.015
44 | ATAGTGAGCG | 1.01 ± 0.025
45 | CGTTTTATTG | 0.99 ± 0.049
46 | TCGATCTTGG | 0.988 ± 0.011

Row | Sequence | switch fluorescence ratio
47 | GTCCGAAGGC | 0.988 ± 0.014
48 | AAAATGCATC | 1.04 ± 0.038
49 | GGGTAGAGGT | 1.003 ± 0.0062
50 | ATTTTTGGAG | 0.9792 ± 0.0053
51 | AAATTAGCTT | 0.987 ± 0.084
52 | ACGGTTTAAT | 1.04 ± 0.029
53 | ACGGGCGGGC | 1.29 ± 0.032
54 | TGCTTAGACT | 1.18 ± 0.27
55 | CTTAATTATA | 1.01 ± 0.015
56 | TAAATAATAT | 1.01 ± 0.019
57 | TTAGATCAGC | 0.99 ± 0.03
58 | GTGGCCGGGT | 1.03 ± 0.0047
59 | AGGTTTGTA | 1.04 ± 0.016
60 | GGGAGTTTAG | 0.994 ± 0.016
61 | TTGGTGACCG | 1.03 ± 0.036
62 | TAGTTTTCTG | 0.982 ± 0.017
63 | GTTATAATCC | 1.037 ± 0.0076
64 | GTTTGTTTAA | 0.981 ± 0.017
65 | TTGGGGCACT | 0.985 ± 0.016
66 | TCGATGGTTT | 1.013 ± 0.01
67 | GAGTAAGCAA | 1.64 ± 0.084
68 | CCTGTTATGG | 1.01 ± 0.032
69 | TCGGGGTATG | 0.982 ± 0.014

Row | Sequence | switch fluorescence ratio
70 | TAATAAAAGG | 0.998 ± 0.041
71 | CGATTTGTAA | 0.99 ± 0.031
72 | GGATTGGGAC | 1.024 ± 0.0016
73 | AACTCAGGGG | 1.29 ± 0.067
74 | TAAAGGGAGC | 1.12 ± 0.19
75 | CAGGGGCTGG | 1.05 ± 0.03
76 | GAGAAGAGGA | 0.9918 ± 0.0021
77 | GGTAAACAGG | 1.04 ± 0.031
78 | TGTTTCCATG | 0.988 ± 0.016
79 | CGGGGAGGAG | 1.02 ± 0.056
80 | GTTGGGATAA | 1 ± 0.038
81 | CATGACTAGA | 0.981 ± 0.014
82 | GCCTATGCGG | 1.01 ± 0.0033
83 | TGAGAAAGGA | 0.99 ± 0.028
84 | TCAATGTGGT | 1.016 ± 0.008
85 | GGTGGAGGTT | 1.02 ± 0.051
86 | GATAGTGTAG | 1.03 ± 0.0034
87 | AACAGCTGTG | 0.998 ± 0.013
88 | AAGTAATTGT | 1.01 ± 0.015
89 | GGATATAGGG | 1 ± 0.034
90 | GTTTTAAACA | 1 ± 0.034
91 | TAAAGGGGTG | 1.01 ± 0.038
92 | GGTCGCAACC | 1.04 ± 0.049

Row | Sequence | switch fluorescence ratio
93 | GTGCCGGGTT | 1.03 ± 0.066
94 | CGTGGAGGGA | 1.01 ± 0.027
95 | GCATTATTTG | 1.05 ± 0.02
96 | TTATTACGG | 1 ± 0.027
97 | GTGGATAATG | 0.996 ± 0.056
98 | ATCGGCGGGA | 0.986 ± 0.01
99 | TTAGGGAGCG | 0.996 ± 0.035
100 | TTAATATGGT | 0.99 ± 0.04
101 | TGTCAGTGCT | 1.015 ± 0.0066
102 | CTGGCTTTTG | 0.999 ± 0.017
103 | ATTTATGCAG | 0.9992 ± 0.0035
104 | AGTTCTCAGT | 0.997 ± 0.018
105 | GCATCGGGGG | 0.981 ± 0.037
106 | GCGGGATACA | 1.07 ± 0.034
107 | CTGGGGGTGG | 0.964 ± 0.011
108 | TGGGGGCGGG | 1 ± 0.033
109 | TGGAGCAGGG | 1.05 ± 0.036
110 | ACCGTCAGTG | 1 ± 0.015
111 | GTTATTTGGA | 0.971 ± 0.069
112 | ATGCGTAGGT | 0.988 ± 0.049
113 | GCATTCGGTT | 0.972 ± 0.039
114 | CGTACACGTT | 1.02 ± 0.051
115 | TTTGAGGACA | 1.01 ± 0.012

Row | Sequence | switch fluorescence ratio
116 | ATGTAGCATC | 1.56 ± 0.028
117 | TTTGTTTAAT | 1.002 ± 0.0012
118 | TCAATCTGTG | 1.01 ± 0.066
119 | ATGTTTTTGG | 1.1 ± 0.22
120 | CCATATCCAA | 1.06 ± 0.055
121 | AGGATCAACG | 0.984 ± 0.034
122 | ATAGGGTCCG | 0.977 ± 0.024
123 | GTAGTAGGGC | 1.06 ± 0.016
124 | TTTTGGACCC | 1.01 ± 0.035
125 | GCGGGGACAT | 0.994 ± 0.013
126 | AATCATTTTG | 1 ± 0.018
127 | TTGGGAACGT | 1 ± 0.11
128 | CCGTCGCTTA | 2.36 ± 0.37
129 | TGTTTTGAGA | 1 ± 0.023
130 | TTAAATTGGT | 0.99 ± 0.025
131 | ATAATAGGCG | 0.985 ± 0.0028
132 | TTCTCGGGTT | 0.99 ± 0.023
133 | GGGGAAAAAA | 1.06 ± 0.14
134 | TTCTCGTTGG | 1.02 ± 0.032
135 | CGGTTGTAAT | 1.03 ± 0.041
136 | TAGCCTTACG | 1.123 ± 0.0043
137 | GATAGTTGGG | 0.988 ± 0.02
138 | ATGGATAATG | 0.977 ± 0.054

Row | Sequence | switch fluorescence ratio
139 | ATGAGAATAG | 1.01 ± 0.0016
140 | GGTTCAAGGT | 0.994 ± 0.027
141 | CAAGTGCTGT | 0.98 ± 0.033
142 | CAGTAGGTCT | 1.01 ± 0.027
143 | TTGCGCTACG | 1.01 ± 0.011
144 | ACGGGGAGTC | 1.039 ± 0.0052
145 | AATTTTTTCA | 0.99 ± 0.018
146 | GATAGCAGCG | 1.01 ± 0.064
147 | TCATTTATTA | 1.04 ± 0.023
148 | GATTCATGTT | 0.998 ± 0.013
149 | GGAGGGCGGT | 0.9948 ± 0.0081
150 | TGGTTTTAAG | 0.98 ± 0.024
151 | TTGCAAGAGA | 1.022 ± 0.0082
152 | AGGGGGCGCT | 1.01 ± 0.043
153 | TAGGAAGGGT | 0.997 ± 0.028
154 | GATGTGGTGC | 1.016 ± 0.0038
155 | GTCGTATGAT | 0.9993 ± 0.0091
156 | GTGAGGGGTG | 0.996 ± 0.032
157 | CAAGGATACA | 1 ± 0.034
